Measurements published in PMC7112112.

Key:
[1] = RT-qPCR of IBV gRNA and sgRNA2; conditions: glycan lost; control: WTrIBV
[2] = growth curve, TCID50, Vero cells; conditions: glycan lost; control: WTrIBV
[3] = plaque size and shape, Vero cells; conditions: glycan lost; control: WTrIBV
[4] = indirect immunofluorescence, infected Vero cells; conditions: glycan lost; control: WTrIBV
[5] = 20-60% sucrose gradient ultracentrifugation, anti-M blot; conditions: glycan lost; control: WTrIBV
[6] = co-expression with E in COS-7, pelleted VLP blot; conditions: glycan lost; control: MWT

B1: IBV M protein (membrane protein): rN3D/N6D (protein)
parent chain: MPNETNCTLDFEQSVQLFKEYNLFITAFLLFLTIILQYGYATRSKVIYTLKMIVLWCFWPLNIAVGVISCTYPPNTGGLVAAIILTVFACLSFVGYWIQSIRLFKRCRSWWSFNPESNAVGSILLTNGQQCNFAIESVPMVLSPIIKNGVLYCEGQWLAKCEPDHLPKDIFVCTPDRRNIYRMVQKYTGDQSGNKKRFATFVYAKQSVDTGELESVATGGSSLYT
no change: other: viral replication [1] | other: viral replication [2] | other: viral replication [3] | localisation_or_trafficking [4] | other: virion sedimentation [5]

B2: IBV M protein (membrane protein): MN3D/N6D (protein)
parent chain: MPNETNCTLDFEQSVQLFKEYNLFITAFLLFLTIILQYGYATRSKVIYTLKMIVLWCFWPLNIAVGVISCTYPPNTGGLVAAIILTVFACLSFVGYWIQSIRLFKRCRSWWSFNPESNAVGSILLTNGQQCNFAIESVPMVLSPIIKNGVLYCEGQWLAKCEPDHLPKDIFVCTPDRRNIYRMVQKYTGDQSGNKKRFATFVYAKQSVDTGELESVATGGSSLYT
no change: other: VLP formation [6]
